The source of these data is article doi:10.1101/2025.06.03.657256 (bioRxiv, 2025).

The data set “thioflavin T” concerns the molecule itself. Briefly: thioflavin T.
Data set [1] deals with the molecule itself. Briefly: negative-stain EM of fibrils.

B1: PLIN4-4mer[326:] (domain or fragment, human, UniProt Q96Q06 326-457, looked up)
chain: SKTVLTGTKDTVCSGVTGAMNVAKGTIQTGVDTTKTVLTGTKNTVCSGVTGAVNLAKEAIQGGLDTTKSMVMGTKDTMSTGLTGAANVAKGAMQTGLNTTQNIATGTKDTVCSGVTGAMNLARGTIQTGVDT
As for B1, the binding result in “thioflavin T” was “binds”.

B2: PLIN4-20mer (domain or fragment, human, UniProt Q96Q06 260-919, looked up)
chain: SKTVLTGTKDTVCSGVTGAMNVAKGTIQTGVDTSKTVLTGTKDTVCSGVTGAMNVAKGTIQTGVDTSKTVLTGTKDTVCSGVTGAMNVAKGTIQTGVDTTKTVLTGTKNTVCSGVTGAVNLAKEAIQGGLDTTKSMVMGTKDTMSTGLTGAANVAKGAMQTGLNTTQNIATGTKDTVCSGVTGAMNLARGTIQTGVDTTKIVLTGTKDTVCSGVTGAANVAKGAVQGGLDTTKSVLTGTKDAVSTGLTGAVNVAKGTVQTGVDTTKTVLTGTKDTVCSGVTSAVNVAKGAVQGGLDTTKSVVIGTKDTMSTGLTGAANVAKGAVQTGVDTAKTVLTGTKDTVTTGLVGAVNVAKGTVQTGMDTTKTVLTGTKDTIYSGVTSAVNVAKGAVQTGLKTTQNIATGTKNTFGSGVTSAVNVAKGAAQTGVDTAKTVLTGTKDTVTTGLMGAVNVAKGTVQTSVDTTKTVLTGTKDTVCSGVTGAANVAKGAIQGGLDTTKSVLTGTKDAVSTGLTGAVKLAKGTVQTGMDTTKTVLTGTKDAVCSGVTGAANVAKGAVQMGVDTAKTVLTGTKDTVCSGVTGAANVAKGAVQTGLKTTQNIATGTKNTLGSGVTGAAKVAKGAVQGGLDTTKSVLTGTKDAVSTGLTGAVNLAKGTVQTGVDT
As for B2, in data set [1], the binding result is “binds”. Take SKTVLTGTKDTVCSGVTGAMNVAKGTIQTGVDT (peptide, UniProt Q96Q06 260-292, looked up) [1mer[260:]]: in “thioflavin T”, the binding result was “binds”.

B3: PLIN4-4mer[689:] (domain or fragment, human, UniProt Q96Q06 689-820, looked up)
chain: AKTVLTGTKDTVTTGLMGAVNVAKGTVQTSVDTTKTVLTGTKDTVCSGVTGAANVAKGAIQGGLDTTKSVLTGTKDAVSTGLTGAVKLAKGTVQTGMDTTKTVLTGTKDAVCSGVTGAANVAKGAVQMGVDT
Consider B3, for which the binding result in the data set “thioflavin T” is “binds”.

B4: PLIN4-4mer[557:] (domain or fragment, human, UniProt Q96Q06 557-688, looked up)
chain: TKSVVIGTKDTMSTGLTGAANVAKGAVQTGVDTAKTVLTGTKDTVTTGLVGAVNVAKGTVQTGMDTTKTVLTGTKDTIYSGVTSAVNVAKGAVQTGLKTTQNIATGTKNTFGSGVTSAVNVAKGAAQTGVDT
As to B4, in the data set “thioflavin T”, the binding result is recorded as “binds”.

B5: 4x1mer[260:] released from MBP-4x1mer[260:] by TEV protease (domain or fragment, human, UniProt Q96Q06 260-292, looked up)
chain: SKTVLTGTKDTVCSGVTGAMNVAKGTIQTGVDTSKTVLTGTKDTVCSGVTGAMNVAKGTIQTGVDTSKTVLTGTKDTVCSGVTGAMNVAKGTIQTGVDTSKTVLTGTKDTVCSGVTGAMNVAKGTIQTGVDT
As to B5, the binding result in “thioflavin T” is recorded as “binds”.
